Assay: soluble on expression in E. coli; label from the status in PepcDB or PDB records

Sequence	soluble on expression in E. coli
MLTDTAAEGLSDSEVGREEPATAEEEQREQQPEKFEEPVFSAELDEEQTAPESQTEAVSEDEKAKEPSDSPVYNHHENAAEGAESPFVQEEQMDIRQEEPLFTDHEYSSEALAQAETVAKESEEPSESIINNHYDTLGEAQETKIDVQPDSHTELEKTEHMEQGSKSSTATLENRQEIRADKPREASEEPKKRPGVQEKRTEQSASSQKGPSVPFNVMMLKRDTHKQQKAEERRGSYVFPNVALLDVPPAQVQDDTAWIEEQRQLLDLTLKNFNVRANVVHVTQGPSVTRFEVHPEPGVKVNKITNLSDDIKLSLSAKDIRIEAPIPGKNTIGIEVPNRTSKVVDLRQMIRSSAFRTSKSPLTAALGLDISGNPVVIDLKKMPHGLIAGATGSGKSVCINTILVSLLYKADPSEVKVLLIDPKMVELAPYNKIPHLVSPVITDAKAATAALKWVVEEMERRYELFAHSGVRDIDRFNQLTAEHQMGEKLPYLVVIIDELADLMMVAPNDVEESIARIAQKARACGIHLLVATQRPSVDVITGLIKANIPTRIAFSVSSQVDSRTIIDIAGAEKLLGKGDMLFLENGSGKPVRLQGNFVSDREIDRVVSHVRSQMPPTYLFEQEELVRQGSALKEEDELFYEACEFVVEQNSASTSSLQRRFRIGYNRAARLIDMMEAEGMISEAKGSKPREVLITASDLINE	not soluble
MLTGLLDVPYRKSFALLEELLERREAEEQTLAISTLATQLKMQQNTILQSVALLQTEIEKNGWENLFSLSANAKEITFWFAPYFQLSFLMPYFVKKSFAYQVLTYAFNHNAIDSKHFEKVLEISSSTFTRKIGQLNQWLQKYQIEINLKRTNVLVGKEKDIRIFFMMLFWNNYSEGDWPLHTITKKEVHSLFRRLKHSVSFNTTQDFTKDLIFSAVILARWKEGFFIKETFVEEEAIVNPFVNLSEFELFFKEEALHQVPTKFIQKEGLFAFFLLTISVSYATQDVLEIPAARMHMVQLLGSPIKEIIYQLTSFYQIKLTFHEYLYLYTSIQNLSVFFKTFVTIANPFVQESFLKEALQKIQVSTKM	not soluble
MLTLLGKIAHFREPLSRQLSLSDTNVTPQISRCAKLNLSVKQKKLLRQSFNAMNSGGTFLKLMEKIFRRLETKCPDMRSIFLTTAFVNSLSRERQTPPLVKTEYDHCKCMVGIFERLIENLENINEQLTMIRHYGEKHAQMAESGFTGAMIEQFGEISVFVIGSQDVVKFNHETVKAWRLLLACVTDEMKVGFDRMSRINGRRNSCNPPSTVPSGN	not soluble
MLTRLNRSFVQAARSMYIQVQETPNPLSLKFLPGQQLLPDASKTYDFSSAATAKQSPLAIKLLRVDGVKRVFFGEDFVTVTKSDETVDWALLRPEIFSTIADHIQTGKPVINEAATVSDQVEEDDEVVMMIKEILETRIRPMVQEDGGDITYVGFDDGVVKLKMQGSCTGCPSSGVTLKNGIENMLTFYVPEVKEVIEVKDESDDLVEQELKKFEQSKGIKD	not soluble
MLTVGILGGGQLGWMTILEGRKLGFKFHVLEDKENAPACRVADRCFRTGQISEFVDSCDIITYEFEHIKDEVLEKCESKLIPNPQALYVKKSRIREKLFLKKHGFPVPEFLVIKRDEIIDALKSFKLPVVIKAEKLGYDGKGQYRIKKLEDANQVVKNHDKEESFIIEEFVKFEAEISCIGVRDREGKTYFYPQPFNKHEEGILIYNYVPYAKLKEAEEITKRLMELLDIVGVFTVEFFLLKDGRVLINEFAPRVHNTGHWTLDGAYTSQFENLLRAITEMPLGSTELKLPSGMVNILGKSYEEIPLKEILSVEGAKLYWYGKEKKPRRKVGHVNVVGRSKEEVVEKVERVFTLLKGSREKLPAP	soluble
MLTYIILVLHLQNHVWEDVTVHNSSLPPLAIKHPECLGLLHQLERSTDVWIQHYCILKDGCLYFYASIRSTQASGGLYLQGYSVSEQTHGFEQPVIELKPSSEEFKTFYFCAENKTENQRWIAALKTSIKKWLPLDQAIQEFMSRPLEETRM	not soluble
MLVKSMNFDPLKEAEKIKDEIISWRRDFHMHPELGFEEERTSKIVEEHLREWGYKIKRAGTGIIADIGDGGKTIALRADMDALPIQEENDVPYKSRVPGKMHACGHDAHTAMLLGAAKIIAEHSSELENKVRLIFQPAEEGGNGALKMIEAGALEGVDAIFGIHVWAELPSGIVGIREGPFLAGVGKFIAKIIGKGGHGAAPHFSIDPIPAAADAVLALQRIVAREVDPLESAVVTVGKIQGGTAFNVIPQYVELEGTFRFFTQELGKFLERRIREIIENTAKAHNCKAEVNTEILGPPTINDEKMVKFVAETAKALGLKVGEVRKTLGGEDFAYYLEKVPGAFIALGIRNEEKGIIYPHHHPKFDVDEDVLYLGTALEVALAFNFKG	soluble
MLVRLGYVAMSVHLKNASPSQTMTYAQFQKLDDRDAAIRKLERIANSNLENCLRLLKHNKGHDISFFRLSSKLIPLANHEELLEWNYIRPLKENLKKLGEYAVHMNMRIDFHPDHFVVLNSPEESVFKQSVKTLQMHKKLLKGMGIEHKQRCVLHVGGGYKDKELALERFIENWSNVPRGIQEMIILENDDTTFTLEETLYLGEKLDIPVVFDLHHHMMNNEQEDWYEDWARVVHTWETSLLPIKMHISSPREGKDPRAHADYINVDAFLSFLRRIKGSVPQIDCMIEAKMKDESLFQLMRDLSEQVDVEIIDGASFYIK	not soluble
MLVSKSNGFNASAVLGSGSYNENKSSKHMELLAHSILKLICKEAASETYRGALETLQKMMSECIYQEGNAFVIMGAGEQLKRIKYEVGENNLKVFNVHFNNNHELVSSGEPDVICLSKQVWENLLIKLKLENNENVFSETKKLSNKNNADQFFECAKRNE	not soluble
MLWKEYEEASSLTARVVKHLDKFDMIVQADKYEKTHEIDLQQFFTSTVGVLKMEPFATWDRELRENRMKRINKAE	not soluble
MLWLALGPFPAMENQVLVIRIKIPNSGAVDWTVHSGPQLLFRDVLDVIGQVLPEATTTAFEYEDEDGDRITVRSDEEMKAMLSYYYSTVMEQQVNGQLIEPLQIFPRACKPPGERNIHGLKVNTRAGPSQHSSPAVSDSLPSNSLKKSSAELKKILANGQMNEQDIRYRDTLGHGNGGTVYKAYHVPSGKILAVKVILLDITLELQKQIMSELEILYKCDSSYIIGFYGAFFVENRISICTEFMDGGSLDVYRKMPEHVLGRIAVAVVKGLTYLWSLKILHRDVKPSNMLVNTRGQVKLCDFGVSTQLVNSIAKTYVGTNAYMAPERISGEQYGIHSDVWSLGISFMELALGRFPYPQIQKNQGSLMPLQLLQCIVDEDSPVLPVGEFSEPFVHFITQCMRKQPKERPAPEELMGHPFIVQFNDGNAAVVSMWVCRALEERRSQQGPP	soluble
MLYDVVGVRFKKAGKVYYFDPNQFDISENEFVIVETVRGIEYGKVVITKKQVDENDVVLPLKKVIRIANENDRTIVEENKHAAKEAYQVCQQKVVEHNLDMKLVDVEYTFDRNKIIFYFTADGRIDFRELVKDLAAIFRTRIELRQIGVRDEAKMLGGIGPCGRMLCCSTFLGDFEPVSIKMAKDQNLSLNPAKISGLCGRLMCCLKYENDEYEAAKEQLPDLDQRIQTPHGTGRVIGLNILERLIQVELVDKERIVEYTLDELVNKGLEHHHHHH	soluble
MLYEKFEYNINNLIGNFGLSKIAIAVSGGSDSISLLYLANIWARKNNIELFVISVDHNLRPQSKQENYYIHTISSNLNRKYYNLSFDHQNNFSNLQERAREGRYDLMTNLCLELDVLVLLTAHHEDDYVENFCLRLERNSGIFGLSSSNIHWYNNIQIIRPLYNIPKSELVEYLVNHKIKWFEDESNLSDKYRRNIIRQKLFKEENYIKAEISLQQLKTNKLIEDELKPALISAIAEAVKIFEYGFTFLDLVKFDKFLNEVKAQIINFLLIMISGQSRSARFYSIAHILKLISQDINFKNTVHGCVIKRIQNELLIYREFGKKLPKSKILLDKSVIWDNRFCITKNQKTPDCVITYLSLADYKAIKKQLDLKHLKNLSCKNHNAILFTLPIIKILEKVIAIPHISYYDNDVWNFEVSFAPNFVSRFTHFC	not soluble
MLYLHDVWVNWFEGEENGYNVCHFYEWRKDDTIELLDQVPLLKVDATLYHYIENELLELPQKMLKTYIIRLIFVKIMNVCSKSIALLLQNGKGIIAIDTIGYNVPIRKSRLIPRQEQMVYEMVENVQAEKYEFQVEETEKEHHILSPSPFIMNGLTRKERQLKQLLFMALDQLHTTKNTAEIRYWFTEWDPSAYGMVQHMEFEDIWAKLYDEAKTGWSDKHEQLCERLVKGQPFFEKLWEMENEQKVN	not soluble
MLYVILRGRLGNNLFQIATAASLTQNFIFCTVNKDQERQVLLYKDSFFKNIKVMKGVPDGIPYYKEPFHEFSRIPYEEGKDLIIDGYFQSEKYFKRSVVLDLYRITDELRKKIWNICGNILEKGETVSIHVRRGDYLKLPHALPFCGKSYYKNAIQYIGEDKIFIICSDDIDWCKKNFIGKRYYFIENTTPLLDLYIQSLCTHNIISNSSFSWWGAWLNENSNKIVIAPQMWFGISVKLGVSDLLPVSWVRLPNNYTLGRYCFALYKVVEDYLLNILRLIWKRKKNMLEHHHHHH	not soluble
MMCSTVISQLGFECHPIGKTLRIISPFTYCDDGEHVGAFIREVNGRYLVSDRCDALMNMEARGISLTKKRLDEIRQLLLKEGAELNARGEIIAWATEKDVGAITSNIIRAGILASTLSLDWYQPVQAEKFESMVIDYLYHTELRDALSLRENVYGLSGHQITVPVTIKTDIPKYVFTSSVKHGGSWNSAYSLLGKLIDLKASSEEYNNRFVVIDSEAIGDQMQQLSLLFHESSQVLPFSKRETWVKRLAA	not soluble
MMEEQLIPIQWKDDALVLLDQTLLPNEIVYESFKTAESVWDAIQVMKVRGAPAIGVSAAYGVYLGIKEFAESTEEGFMDEVRKVCTYLATSRPTAVNLFWALERMESVATDNIHLSISQLKNRLLEEAKEIHREDEEINRQIGEHALTLFHDGMGVLTHCNAGALATTKYGTATAPMYLAKEKGWDLKIYSDETRPRLQGSTLTALELQRAGIDVTVITDNMAAMVMSQGKIDAVIVGCDRVAANGDVANKIGTLGVSILAKYYNIPFYVAAPTPTIDLKTSTGKEIPIEERDASEVINRFGKYSAPKESKVYNPAFDVTPHENVTAIITEKGIVKAPFTENLKKLFQ	not soluble
MMELHRRVLEGDEAALKTLVSAAPNIGEVARDVVEHLSPGSYREGGPCAVCGGRLESVIASAVEEGYRLLRAYDIERFVVGVRLERGVAMAEEEVKLAAGAGYGESIKAEIRREVGKLLVSRGGVTVDFDSPEATLMVEFPGGGVDIQVNSLLYKARYWKLARNISQAYWPTPEGPRYFSVEQALWPVLKLTGGERLVVHAAGREDVDARMLGSGRPMIVEVKSPRRRRIPLEELEAAANAGGKGLVRFRFETAAKRAEVALYKEETARVRKVYRALVAVEGGVSEVDVEGLRRALEGAVIMQRTPSRVLHRRPDILRRRRLYSLDCSPLEGAPLMECILEAEGGLYIKELVSGDGGRTRPSFAEVLGREAVCIELDVVWVEHEAPAAPGLEHHHHHH	soluble
MMGLLKRLLRVVRAEAHSVVEKLEDPIKITEEGLRELRKQLKEAMEALAQVKASQIRFEREARNEKERAKALVKKAESLLLQAQEGKISPEEAEKLAAELIQKAELHEKNARRLEEEAKRQREMAVKLQAKIDELKVQIAKYEAELKTLKARLATARAVKKVNKQIAKVDPSDTIAMLERMKEKVEEEETLAQAYEELAKQEVALDVESEAEKKLKEVESKQKLEELKKRLGLSLEHHHHHH	not soluble
MMIDDSKVSFVIPTINEEGTIGSVIDGIRSEFPNSEIIVVDTNSTDRTREIARSKGARVIEEPRRGYGRAYQTGIPAASGEIIVCMDGDGTYPTDVVKPLIELLIADRVDFISCDRITFRTSKNYTTLHYVGNMVLNLTIRILFKVRMVDSQSGMWVFRSEIYRKMKNLGNGMSFSQNIKIEAVRHGVFMEIPIRYGVRITKPKLKTWHDGFHNLFALFVKRVSELEHHHHHH	soluble

— the DeepSol protein solubility set
